What was measured:
[1] = system: iPS cells; experiment: Two-dimensional adhesion culture of iPS cells with BMP4, hCG in culture supernatant by GONASTICK W; type: cell-based, human; settings: 2D adhesion culture, StemFit, BMP4 present
Protocol: (§1) In GONASTICK W, about 0.5 to 1 mL of the culture supernatant was sampled, and a test strip was soaked therein. After the soaking was completed, the determination surface of the test strip was placed to face upward and allowed to stand until the culture supernatant passed through the determination window and reached the reaction end window. […] The detection sensitivity of the present examination reagent is 25 IU/L, and a blue control line corresponding to an hCG concentration of 1,000 IU/L is printed in advance on the determination window, which can be visually compared with the determination line.
(§2) In a case where a line equal to or more blue-colored than the control line was visually observed on the determination line, it was judged as positive (+).
(§3) In a case where the line was not visually observed on the determination line, it was determined to be negative (−).
(§4) In a case where a line that was less blue-colored than the control line but was visible was visually observed on the determination line, it was determined to be (+/−).
Laminin (iMatrix-511: Nippi. Inc.) was diluted with Dulbecco's phosphate buffered saline (DPBS), 1 mL thereof per well was dispensed into a 6-well plate (Falcon TC: #353046), and the plate was allowed to stand in a 37° C. incubator for 1 hour to be coated with laminin. 2 mL of an iPS cell medium (StemFit (registered trade name) AK02N: Ajinomoto Co., Inc.) to which 2 μL of a solution containing 50 μg/mL BMP4 (R&D Systems Inc.) had been added was dispensed into the laminin-coated plate, and iPS cells (4×10^4 cells/well) were seeded therein. The culture was continued while appropriately changing the medium, and the hCG contained in the culture supernatant was detected using a drug for in vitro diagnosis for the pregnancy test, GONASTICK W (MOCHIDA PHARMACEUTICAL Co., Ltd.), whereby the differentiation induction into a placental tissue was checked. As a negative control, the same culture was carried out using a medium to which BMP4 had not been added. The hCG was started to be produced on the 7th day of culture; however, the hCG production stopped around the 18th day (Table 1).

[2] = system: iPS cells; experiment: Three-dimensional suspension (spinner flask) culture of iPS cells with BMP4, hCG by GONASTICK W; type: cell-based, human; settings: for hCG production: Example 1, spinner flask
Protocol: as §1, §2, §3, §4
30 mL of an iPS cell medium (StemFit (registered trade name) AK02N: Ajinomoto Co., Inc.) was dispensed into a 30 mL volume spinner flask (ABLE Corporation), and then iPS cells (1.6×10^7 cells/mL) were seeded. BMP4 was not added at the start of culture, but 30 μL of a solution containing 50 μg/mL BMP4 (R&D Systems Inc.) was added on the 4th day of culture so that the final concentration of BMP4 in the medium was to be 50 ng/mL. In a case where BMP4 was added to Example 2 and subsequent Examples, the same concentration was used. After the start of culture, the addition of BMP4 was continued until the 18th day of culture while exchanging half of the medium every 3 to 4 days, and thereafter, only the medium was exchanged without adding BMP4. Cell aggregates (spheroids) were formed by the 4th day of culture (FIG. 1). The stirring culture was continued in a spinner flask throughout the culture period. Although the hCG production was not confirmed until the 11th day of culture, the hCG production was confirmed after the 15th day of culture, and it was confirmed that the hCG production was continued even after the 60th day of culture (Table 2).
30 mL of an iPS cell medium (StemFit (registered trade name) AK02N: Ajinomoto Co., Inc.) was dispensed into a 30 mL volume spinner flask (ABLE Corporation), and then iPS cells (1.1×10^7 cells/bottle) were seeded. The comparison was carried out between the level 1 in which BMP4 was not added at the start of culture but added on the 4th day of culture and the level 2 in which BMVP was added from the start of culture. BMP4 was added so that the concentration in the medium was 50 ng/mL in both the level 1 and the level 2. After the start of culture, half of the medium was exchanged every 3 to 4 days, and after the 18th day of culture, the medium was exchanged for both the level 1 and the level 2 with a medium to which BMP4 had not been added. By the 4th day of culture, cell aggregates (spheroids) were formed. Regarding the level 1 and the level 2, stirring culture was continued in a spinner flask from the initial stage of culture, and the hCG production was checked. In a case where BMP4 is added from the start of culture (the level 2), the hCG production is started earlier; however, the hCG production also stops earlier. On the other hand, in a case where BMP4 is added after the 4th day of culture (the level 1), the hCG production is slightly delayed; however, it continued for a long time.

B1: BMP4: bone morphogenetic protein BMP4 (R&D Systems Inc.), added to iPS cell medium at 50 ng/mL to induce differentiation (protein, UniProt P12644 293-408, looked up)
Bone morphogenetic protein 4: SPKHHSQRARKKNKNCRRHSLYVDFSDVGWNDWIVAPPGYQAFYCHGDCPFPLADHLNSTNHAIVQTLVNSVNSSIPKACCVPTELSAISMLYLDEYDKVVLKNYQEMVVEGCGCR
hCG production ([1]; day 7): + (a line equal to or more blue-colored than the control line was visually observed on the determination line, it was judged as positive (+)) | hCG production ([1]; day 11): + (a line equal to or more blue-colored than the control line was visually observed on the determination line, it was judged as positive (+)) | hCG production ([1]; day 15): + (a line equal to or more blue-colored than the control line was visually observed on the determination line, it was judged as positive (+)) | hCG production ([1]; day 18): +/− (a line that was less blue-colored than the control line but was visible was visually observed on the determination line, it was determined to be (+/−)) | hCG production ([1]; day 21): − (the line was not visually observed on the determination line, it was determined to be negative (−)) | hCG production ([2]; BMP4 50 ng/mL day 4 to 18, day 15): + (a line equal to or more blue-colored than the control line was visually observed on the determination line, it was judged as positive (+)) | hCG production ([2]; BMP4 50 ng/mL day 4 to 18, day 39): + (a line equal to or more blue-colored than the control line was visually observed on the determination line, it was judged as positive (+)) | hCG production ([2]; BMP4 50 ng/mL day 4 to 18, day 53): + (a line equal to or more blue-colored than the control line was visually observed on the determination line, it was judged as positive (+)) | hCG production ([2]; BMP4 50 ng/mL day 4 to 18, day 67): + (a line equal to or more blue-colored than the control line was visually observed on the determination line, it was judged as positive (+)) | HCG production ([2]; level 1: BMP4 50 ng/mL added from day 4, spinner flask, day 8): − (the line was not visually observed on the determination line, it was determined to be negative (−)) | HCG production ([2]; level 1: BMP4 added from day 4, day 11): − (the line was not visually observed on the determination line, it was determined to be negative (−)) | HCG production ([2]; level 1: BMP4 added from day 4, day 14): +/− (a line that was less blue-colored than the control line but was visible was visually observed on the determination line, it was determined to be (+/−)) | HCG production ([2]; level 1: BMP4 added from day 4, day 18): + (a line equal to or more blue-colored than the control line was visually observed on the determination line, it was judged as positive (+)) | HCG production ([2]; level 1: BMP4 added from day 4, day 21): + (a line equal to or more blue-colored than the control line was visually observed on the determination line, it was judged as positive (+)) | HCG production ([2]; level 1: BMP4 added from day 4, day 25): + (a line equal to or more blue-colored than the control line was visually observed on the determination line, it was judged as positive (+)) | HCG production ([2]; level 1: BMP4 added from day 4, day 28): + (a line equal to or more blue-colored than the control line was visually observed on the determination line, it was judged as positive (+)) | HCG production ([2]; level 1: BMP4 added from day 4, day 32): + (a line equal to or more blue-colored than the control line was visually observed on the determination line, it was judged as positive (+)) | HCG production ([2]; level 2: BMP4 50 ng/mL added from start of culture, spinner flask, day 8): + (a line equal to or more blue-colored than the control line was visually observed on the determination line, it was judged as positive (+)) | HCG production ([2]; level 2: BMP4 added from start of culture, day 11): + (a line equal to or more blue-colored than the control line was visually observed on the determination line, it was judged as positive (+)) | HCG production ([2]; level 2: BMP4 added from start of culture, day 14): + (a line equal to or more blue-colored than the control line was visually observed on the determination line, it was judged as positive (+)) | HCG production ([2]; level 2: BMP4 added from start of culture, day 18): + (a line equal to or more blue-colored than the control line was visually observed on the determination line, it was judged as positive (+)) | HCG production ([2]; level 2: BMP4 added from start of culture, day 21): + (a line equal to or more blue-colored than the control line was visually observed on the determination line, it was judged as positive (+)) | HCG production ([2]; level 2: BMP4 added from start of culture, day 25): +/− (a line that was less blue-colored than the control line but was visible was visually observed on the determination line, it was determined to be (+/−)) | HCG production ([2]; level 2: BMP4 added from start of culture, day 28): − (the line was not visually observed on the determination line, it was determined to be negative (−)) | HCG production ([2]; level 2: BMP4 added from start of culture, day 32): − (the line was not visually observed on the determination line, it was determined to be negative (−))
